{"source": "paper PMC3679363", "about": "(Molecular cell, 2013)", "target": "recombinant His-Tip60α ( (human or mouse cDNA cloned), UniProt Q92993 1-513)", "sequence (Q92993 whole entry)": "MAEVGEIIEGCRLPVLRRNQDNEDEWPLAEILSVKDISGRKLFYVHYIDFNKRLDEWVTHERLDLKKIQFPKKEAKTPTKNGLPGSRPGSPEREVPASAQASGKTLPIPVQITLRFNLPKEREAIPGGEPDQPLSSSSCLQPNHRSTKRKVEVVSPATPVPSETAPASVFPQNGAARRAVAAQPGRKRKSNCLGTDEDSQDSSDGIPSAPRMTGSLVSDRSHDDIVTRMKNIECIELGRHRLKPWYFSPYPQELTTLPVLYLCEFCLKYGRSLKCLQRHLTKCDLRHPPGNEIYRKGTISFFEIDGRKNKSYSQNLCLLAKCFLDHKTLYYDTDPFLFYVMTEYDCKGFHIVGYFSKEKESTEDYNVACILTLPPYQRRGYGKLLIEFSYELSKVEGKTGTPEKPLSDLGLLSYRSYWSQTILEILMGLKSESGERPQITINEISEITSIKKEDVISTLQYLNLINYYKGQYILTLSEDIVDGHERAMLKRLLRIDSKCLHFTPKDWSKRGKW", "assay": "pull-down", "data": [{"binder": "GST-PRAK (enzyme, UniProt Q8IW41 1-473, looked up) MSEESDMDKAIKETSILEEYSINWTQKLGAGISGPVRVCVKKSTQERFALKILLDRPKARNEVRLHMMCATHPNIVQIIEVFANSVQFPHESSPRARLLIVMEMMEGGELFHRISQHRHFTEKQASQVTKQIALALRHCHLLNIAHRDLKPENLLFKDNSLDAPVKLCDFGFAKIDQGDLMTPQFTPYYVAPQVLEAQRRHQKEKSGIIPTSPTPYTYNKSCDLWSLGVIIYVMLCGYPPFYSKHHSRTIPKDMRRKIMTGSFEFPEEEWSQISEMAKDVVRKLLKVKPEERLTIEGVLDHPWLNSTEALDNVLPSAQLMMDKAVVAGIQQAHAEQLANMRIQDLKVSLKPLHSVNNPILRKRKLLGTKPKDSVYIHDHENGAEDSNVALEKLRDVIAQCILPQAGKGENEDEKLNEVMQEAWKYNRECKLLRDTLQSFSWNGRGFTDKVDRLKLAEIVKQVIEEQTTSHESQ", "values": [{"measurement": "binding result", "value": "binds"}]}]}
